Measurements published in patent US20240270859A1 (HK INNO N, published 2024).
Where a chain is given by its changes, count along the chain named. Names and notes keep the numbering of the source.

B1: anti-OX40L antibody Hu3F07 (antibody, human IgG4 S228P, kappa, V domains shown)
VH: QVQLVQSGAEVKKPGASVKVSCKASGFTFPDYWMHWVRQAPGQGLEWMGEIDPPNGRTNYNEKFKSRVTMTRDTSISTAYMELSRLRSDDTAVYYCARGIYYVDYWGQGTTVTVSS
VL: DIVMTQSPLSLPVTLGEPASISCRSSQSLVHSNGNTYLHWYLQKPGQSPQLLIYKVSNRFSGVPDRFSGSGSGTDFTLKISRVEAEDVGVYYCSQSTHVPPTFGGGTKLEIKR
notes: Humanized; IgG4 S228P / kappa
B2: anti-OX40L antibody 10H07 (antibody, human IgG4 S228P, kappa, V domains shown)
VH: QVYLQQSGAELVKPGASVKLSCKASGYTFTDYWMHWVKQRPGQGLEWIGEIDPGNGRTNYNEKFKNKATLSVDKSSNTAYMQFSSLTSEDSAVFYCASEGAGRGFPYWGQGTLVTVSA
VL: B1 VL with I2V, M4L, S7T, T14S, E17D, P18Q, Q50K, V88L, Y92F, P101W
notes: Chimeric; IgG4 S228P / kappa
B3: anti-OX40L antibody 21G07 (antibody, human IgG4 S228P, kappa, V domains shown)
VH: QVQLQQSGAELVKPGASVKLSCKASGYTFTNYWMQWVKQRPGQGLEWIGEIDPSDGRTNYNEKFKNKATLTVDRSSSTAYIKLSSLTSEDSAVYYCAREVSLRSMDYWGQGTSVTVSS
VL: B1 VL with M4L, T14S, E17D, P18Q, Q50K, V88L, Y92F, P101F, G105S
notes: Chimeric; IgG4 S228P / kappa
B4: bispecific antibody Hu3F07-TNFαi HC (bispecific antibody)
heavy: not shown
light: DIVMTQSPLSLPVTLGEPASISCRSSQSLVHSNGNTYLHWYLQKPGQSPQLLIYKVSNRFSGVPDRFSGSGSGTDFTLKISRVEAEDVGVYYCSQSTHVPPTFGGGTKLEIKRTVAAPSVFIFPPSDEQLKSGTASVVCLLNNFYPREAKVQWKVDNALQSGNSQESVTEQDSKDSTYSLSSTLTLSKADYEKHKVYACEVTHQGLSSPVTKSFNRGEC
B5: bispecific antibody 02C09-TNFαi HC (bispecific antibody)
heavy: not shown
light: DIQMTQSPSSLSASLGDRVTITCRASQSIGRWLAWYQQKPGNAPKLLIYKATILESGVPSRFSGSGSGTEFALTISSLQPDDFSAYYCQQYNSYPYTFGQGTKLEIKRTVAAPSVFIFPPSDEQLKSGTASVVCLLNNFYPREAKVQWKVDNALQSGNSQESVTEQDSKDSTYSLSSTLTLSKADYEKHKVYACEVTHQGLSSPVTKSFNRGEC
B6: bispecific antibody I3F07-TNFαi HC (bispecific antibody)
heavy: not shown
light: B4 light with M4L, T14S, E17D, P18Q, Q50K, V88L, Y92F, T107S
B7: reference anti-OX40L antibody O4L (VH and VL of oxelumab) (antibody, human IgG4 S228P, kappa, V domains shown)
VH: EVQLLESGGGLVQPGGSLRLSCAASGFTFNSYAMSWVRQAPGKGLEWVSIISGSGGFTYYADSVKGRFTISRDNSRTTLYLQMNSLRAEDTAVYYCAKDRLVAPGTFDYWGQGALVTVSS
VL: DIQMTQSPSSLSASVGDRVTITCRASQGISSWLAWYQQKPEKAPKSLIYAASSLQSGVPSRFSGSGSGTDFTLTISSLQPEDFATYYCQQYNSYPYTFGQGTKLEIKR

biological target: T1, human OX40L protein (OX40L-his), Acro Biosystems Cat #OXL-H52Q8 (human, UniProt P23510 51-183); experiment: SPR (Biacore T200), antibody captured by anti-hFc on CM5 chip, antigen as analyte
T1 construct: This molecule is used there as well; also called hOX40L; OX40L antigen protein (OX40L-his)
T1 sequence: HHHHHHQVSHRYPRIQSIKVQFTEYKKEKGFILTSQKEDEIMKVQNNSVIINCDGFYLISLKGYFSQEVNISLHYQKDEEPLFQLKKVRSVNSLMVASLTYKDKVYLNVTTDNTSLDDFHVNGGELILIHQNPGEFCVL
Method: A surface plasmon resonance (SPR) analysis was performed by using Bicore T200, and a running buffer used was HBS-EP (10 mM HEPES, pH7.4, 150 mM NaCl, 3 mM EDTA, […] surfactant P20). A human antibody capture kit (anti-hFc antibody) was fixed onto a surface of CM5 chip through an amine coupling method. […] An analytical sample was prepared with high purity/high concentration so that the minimum dilution factor could be 100 or more, thereby minimizing a buffer effect.

Row | Binder | Kd [nM] | koff [s⁻¹] | kon [M⁻¹ s⁻¹]
1 | B1 | 0.282 | 0.000357 | 1.27e+06
2 | B2 | 0.295 | 0.000498 | 1.69e+06
3 | B3 | 0.603 | 0.00065 | 1.08e+06
4 | B4 | 0.45 | – | –
5 | B5 | 0.472 | – | –

biological target: T1, human OX40L protein (OX40L-his), Acro …; experiment: cell-based or functional assay

Row | Binder | IC50 (nM), OX40L blockade assay (luminescence of NFκB-luc2/OX40 Jurkat cells) [nM]
6 | B6 | 0.91

biological target: human TNFα (TNF-H5228 of Acro Biosystems) (human, UniProt P01375 77-233); experiment: cell-based or functional assay
Sequence (P01375 77-233 limits assumed): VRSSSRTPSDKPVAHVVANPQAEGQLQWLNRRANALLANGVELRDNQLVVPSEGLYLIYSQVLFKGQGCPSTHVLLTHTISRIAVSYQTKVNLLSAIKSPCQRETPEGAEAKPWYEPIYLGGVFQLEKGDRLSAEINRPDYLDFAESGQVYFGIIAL

Row | Binder | IC50 (nM), TNFα blockade assay (luminescence of NFκB-RE HEK293 cells) [nM]
7 | B6 | 0.055

biological target: T1, human OX40L protein (OX40L-his), Acro …; experiment: cell-based or functional assay; remark: another data set of the same source

Row | Binder | IC50 (nM), OX40L blockade assay (luminescence of NFκB-luc2/OX40 Jurkat cells) [nM] | IC50(µg/mL), OX40L blockade assay (luminescence of NFκB-luc2/OX40 Jurkat cells) [µg/mL]
8 | B1 | 0.2 | 0.03
9 | B2 | 0.41 | 0.061
10 | B3 | 0.85 | 0.128
11 | B7 | 1.95 | 0.293
12 | B4 | 0.21 | 0.041
13 | B5 | 0.59 | 0.117
